Measured values from the supplement of paper PMC9170038.

Test system: MS2 coat protein
Experiment: apparent KD of MS2 coat protein; designed switch direction (-1 OFF switch, 1 ON switch): -1; higher = weaker reporter binding
Summary of the method: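 Designed RNA switches sharing common flanks were transcribed on Illumina chips by stalled E. coli RNA polymerase. They were titrated with SNAP-549-labelled MS2 coat protein, from 0.7 or 1.5 nM doubling to 3 µM, in Tris-HCl pH 7.5 buffer with KCl, MgCl2, BSA, DTT, tRNA and Tween-20. Titrations ran without input, with 200 uM small-molecule ligand, or with an oligonucleotide input. The apparent KD of each design is the median over its clusters, after curve-fitting of normalised cluster fluorescence.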

[1] = Eterna round: R95, input ligand: microRNA oligo, concentration not stated
[2] = Eterna round: R95, input ligand: FMN 200 uM
[3] = Eterna round: R95, input ligand: none

Sequence	apparent KD of MS2 coat protein [1] [nM]	apparent KD of MS2 coat protein (input ligand: FMN 200 uM) [nM]	apparent KD of MS2 coat protein (input ligand: none) [nM]	other results
GAGAGGUCAGGAUAUACGGAGAGAGGGAGUUGGUGAGGGUAACAUGAGGAUCACCCAUGUAGAAGGGACUAAGG [JR_Exclu2_Sub077] (puzzle: Exclusion 2)	22.8	–	–	–
CUGGUCCGAGGAUAUAUUAAGUGAUACAUGAGGAUCACCCAUGUAAUUUGAUGGAUAUAAAUAGAAGGCGGACUAG [Mat - Exclusion 5 - JL mod - D43] (puzzle: Exclusion 5)	37.1	–	–	apparent KD of MS2 coat protein [2]: 59.8 nM; apparent KD of MS2 coat protein [3]: 43.8 nM
AGCCCUGGCGUCAGGAUAUCGAAACCGCAAAAGGACGAGAAGGGACAUGAGGAUCACCCAUGUAGUGAGUUAAA [Isedrecedi] (puzzle: Brourd's mod of Exclusion 4)	34.5	–	–	apparent KD of MS2 coat protein [2]: 35.6 nM; apparent KD of MS2 coat protein [3]: 39 nM
CAACUGUGAGGAUAUGGUGAGUAGUGCCUGAGCGCUGCUCACCAGAAGGCACAUGAGGAUCACCCAUGUAUAAC [Mat - Exclusion 4 - Mod of JL - D4] (puzzle: Exclusion 4)	35.6	–	–	–
GGUUGGCGAGGAUAUACAUGAGGAUCACCCAUGUGGUCCUAAGGCUGAUCAAGCCUAUGUAGAAGGCGCAAAUC [salish99_ex3_r4_010] (Eterna round: R97, puzzle: Exclusion 3)	–	37.7	223	–
CAGAAGUGAGGAUAUAUAUGUAAGUUUGAUCCAACAAGUAUACAUGAGGAUCACCCAUGUAGAAGGUGCUUCCC [Eternabot (L2) Solution 45] (Eterna round: R97, puzzle: Exclusion 2)	–	57.2	44.6	–
GACAAAGGAGGAUAUACAAUGUCCUGGUCUAACCCGAUGGCACAUGAGGAUCACCCAUGUAGAAGGCCUUUGCG [Eternabot (L1) Solution 4] (Eterna round: R97, puzzle: Exclusion 2)	–	39	17.6	–
AGCGGACAAGGAUAUACAUGAGGAUCACCCAUGUACUUAGCAAGUUUGUUUCGUCGAUGUAGAAGGUGUAAUGU [EX3 C.14] (Eterna round: R97, puzzle: Exclusion 3)	–	19.4	20.2	–
CCGGAAAUACAGGAUAUAGGAGUCGAUAGACUCCUAGAAGGGUAUACAUGAGGAUCACCCAUGUUCCUUACCGG [Fiskers Ex 6 - 72] (puzzle: Exclusion 6)	36.9	–	–	–
CUUUUGUGAGGAUAUCAGUAGUAAUACAAUAGUAUUACUACUGAGAAGGUACAUGAGGAUCACCCAUGUUCCUC [Ex4 344 Omei mod 4] (puzzle: Exclusion 4)	17.9	–	–	–
GGUUACAAGCUAAGAUCCUACAUGAGGAUCACCCAUGUGGUCCGGUGACGUGAGUCACCGGACUUAGCUCGUCUUGU [salish99_S_TOV1_R5_002] (Eterna round: R97, puzzle: Sensor, turn-off variant 1)	–	75.4	80	–
UGGUCCCUGAAACAUGAGGAUCACCCAUGUAUAAUGAGGACAAAGGAUAUAUCCCACCAGGUAGGGUAGAAGGUUGAACUCUAC [Eternabot solution 42] (Eterna round: R96, puzzle: Exclusion NG 3)	–	13.1	16.2	apparent KD of MS2 coat protein (input ligand: microRNA oligo, concentration not stated): 10.6 nM
ACGUUGUCAGGAUAUCGUUAAUUUAGUUGUUUGUAUUAGUUCGAGAAGGGACAUGAGGAUCACCCAUGUUUGCA [Ex4 #31] (Eterna round: R97, puzzle: Exclusion 4)	–	32.7	26.3	–
CUUCGACAUGAGGAUCACCCAUGUCAGGAUAUUGUUUAUCUGGUGUUGUCCAGAUAUGCAAGAAGGGAUGUGUG [LRO-Excl1-04] (puzzle: Exclusion 1)	33.8	–	–	–
ACUAGCUUUUUGCAUAGUAGGUUUGGUGCUUCGUAUGCUACAUGAGGAUCACCCAUGUUUUACUGAUGUCGUCGUUU [JR_SV3TOV2_Sub094] (puzzle: Sensor v3, turn-off variant 2)	52.9	–	–	apparent KD of MS2 coat protein [2]: 32.7 nM; apparent KD of MS2 coat protein [3]: 32.3 nM
